These results are taken from US20250136677A1 (ZOETIS SERVICES, published 2025).

Where a chain is given by its changes, count along the chain named.

The target of test [1] is T1, canine IL-31 protein (Canine_IL31) (canine).
T1 chain: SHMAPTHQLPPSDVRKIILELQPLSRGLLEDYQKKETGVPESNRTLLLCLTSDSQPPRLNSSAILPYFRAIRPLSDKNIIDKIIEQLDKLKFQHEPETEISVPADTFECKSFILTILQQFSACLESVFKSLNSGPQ
In words: cell-based or functional assay.

The target in test [2] is T2, wildtype feline IL-31 protein (Feline_IL31_wildtype) (feline).
T2 chain: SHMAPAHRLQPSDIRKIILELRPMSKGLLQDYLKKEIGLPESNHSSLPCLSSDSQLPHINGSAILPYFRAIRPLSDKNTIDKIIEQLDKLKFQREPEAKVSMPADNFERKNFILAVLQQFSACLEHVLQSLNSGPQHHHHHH
The experiment in a line: cell-based or functional assay.

Test [3] concerns the target T2, wildtype feline IL-31 protein …. In words: SPR (Biacore), IL-31 on chip, 1:1 fit. In a few lines: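 IL-31 was amine-coupled (NHS/EDC) to the chip at 5 μg/mL and quenched with ethanolamine, and candidate mAbs were flowed over it as analytes. Binding curves were fitted to a 1:1 model.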
(In general: SPR reads the build-up and loss of mass on a sensor chip optically.)

The target is the same in test [4]. In words: indirect ELISA, IL-31 protein coated. Here is the method:
(§1) For the indirect ELISA method, antibody binding to wildtype and feline IL-31 15H05 mutant proteins was assessed. All nine canine monoclonal antibodies (ZIL1, ZIL8, ZIL8, ZIL11, ZIL69, ZIL94, ZIL154, ZIL159, and ZIL171) were capable of binding to wildtype feline IL-31 and binding was impacted by mutations in the mAb 15H05 epitope region confirming the correct binding phenotype determined during the initial screening used to identify them. In comparison, the 11E12 antibody bound to the wild-type feline IL-31 and its binding was not impacted by the mutations in the 15H05 epitope region as evidenced by the data in FIG. 4. To confirm binding, biacore analysis was performed using canine, feline, equine, human, feline 15H05 mutant, and feline 11E12 mutant IL-31 proteins as surfaces and a single test concentration of antibody. Similar to ELISA observations, all antibodies tested bound to wildtype feline IL-31. In agreement with the data described above in this section, mouse antibodies 11E12 and 15H05 both bound to canine and feline IL-31 surfaces. Three additional antibodies where shown to have this dual binding property, ZIL69 (partial canine binding), ZIL94, and ZIL159. From this group of nine fully canine antibodies, only ZIL1 and ZIL9 cross-reacted with equine IL-31. Of note, antibody 15H05 was the only one of all assayed herein that bound to canine, feline, and equine IL-31 indicating some level of epitope conservation across the three species. In contrast, none of the antibodies described herein bound to human IL-31. Additional biacore surfaces were used to verify ELISA observations showing differential binding of antibodies to wildtype feline IL-31 and two proteins with mutations in the 15H05 (15H05 mutant) or 11E12 (11E12 mutant) epitopes. […] In agreement with the ELISA results, all fully canine antibodies were impacted by the 15H05 mutation with the exception of ZIL94, ZIL154, and ZIL171 (partially affected). Differing results can be attributed to differences in the two assay methodologies.
Background: ELISA stands for enzyme-linked immunosorbent assay.

The target in test [5] is T3, mutant feline IL-31 15H05 protein (Feline_IL31_15H05_mutant) (feline).
T3 construct: also called feline 15H05 mutant; 15H05 IL-31 mutant
T3 chain: T2 chain with P103A, D105A
In words: indirect ELISA, IL-31 protein coated. The protocol: as §1

Test [6] deals with T1, canine IL-31 protein (Canine_IL31). The experiment in a line: SPR (Biacore), IL-31 on chip, 1:1 fit.

B1: mouse anti IL-31 antibody 15H05 (antibody, mouse IgG1, kappa)
heavy: QVQLQQSAAELARPGASVKMSCKTSGYTFTSYTIHWIKQRPGQGLEWIGNINPTSGYTENNQRFKDKTTLTVDRSSNTAYLQLHSLTSEDSAVYFCARWGFKYDGEWSFDVWGAGTTVTVSSKTTPPSVYPLAPGSAAQTNSMVTLGCLVKGYFPEPVTVTWNSGSLSSGVHTFPAVLESDLYTLSSSVTVPSSPRPSETVTCNVAHPASSTKVDKKIVPRDCGCKPCICTVPEVSSVFIFPPKPKDVLTITLTPKVTCVVVDISKDDPEVQFSWFVDDVEVHTAQTQPREEQFNSTFRSVSELPIMHQDWLNGKEFKCRVNSAAFPAPIEKTISKTKGRPKAPQVYTIPPPKEQMAKDKVSLTCMITDFFPEDITVEWQWNGQPAENYKNTQPIMNTNGSYFVYSKLNVQKSNWEAGNTFTCSVLHEGLHNHHTEKSLSHSPGK
light: DIQMNQSPSSLSASLGDTITVTCRASQGISIWLSWYQQKPGNIPKVLINKASNLHIGVPPRFSGSGSGTHFTLTITSLQPEDIATYYCLQSQTYPLTFGGGTKLEINADAAPTVSIFPPSSEQLTSGGASVVCFLNNFYPKDINVKWKIDGSERQNGVLNSWTDQDSKDSTYSMSSTLTLTKDEYERHNSYTCEATHKTSTSPIVKSFNRNEC
notes: Mouse hybridoma antibody, IgG1 kappa; also called Mu-15H05; MU-15H05
What is called Kd is the equilibrium constant for the complex coming apart. The koff is the rate constant with which the complex falls apart. Read a low koff as slow dissociation. The term kon denotes a measure of how fast the partners come together. Lower therefore signals slow association. Molecule B1 registered an Inhibition of IL-31 induced pSTAT3 IC50 (µg/ml), Canine IL-31 on Canine DH82 cells in test [1] of 11.2 µg/ml. Further, in test [2], the “IC50, inhibition of feline IL-31-induced STAT3 phosphorylation, canine DH82 cells” value turned out to be 2.7 µg/mL and the “IC50, inhibition of feline IL-31-induced STAT3 phosphorylation, feline FCWF4 cells” value is 4.26 µg/mL. In test [3], this molecule showed a Kd of 348 pM, a koff of 1.69e-05 s⁻¹ and a kon of 48400 M⁻¹ s⁻¹. The “ELISA OD” value in test [4] is 1.94 OD. In addition, the “ELISA OD” value in test [5] amounted to 0.05 OD. Moreover, in test [6], the koff was 6.56e-07 s⁻¹ and the kon is 135000 M⁻¹ s⁻¹.
